Results as given in the supplement of paper PMC10567573.

B1: TRIM43 (parent)
chain: NNSWIRKNSTMVNSEDIFLLLCLK

Variants of: B1
Test: protein stability index of a GFP-peptide fusion (GPS, HEK-293T) (PSI 1-6); higher = more stable
Conditions: c terminus: a fixed tail appended
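Also: lentivirally expressed fusions sorted by FACS into six bins by GFP to DsRed ratio, PSI derived from sequencing read proportions per bin multiplied by bin number.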

Protein stability index, by site and new letter:
L20: K 2.36; N 3; Y 2.75; S 2.28; A 2.14; D 2.27; P 2.46; G 1.48; M 3.31; F 2.92; E 1.75; V 2.57; I 2.64; Q 3.05; C 2.25; T 2.72; R 1.72; W 3.12; H 2.5
N8: K 2.4; L 2.61; T 3.13; G 2.72; S 2.69; H 1.79; I 2.73; M 2.46; R 3.47; E 3.74; D 3.07; Q 2.93; W 2.99; Y 3.85; C 2.24; V 1.94; P 2.28; A 2.9
D16: A 1.59; C 3.95; H 1.71; R 2.8; Y 2.65; G 2.5; F 2.37; W 3.2; Q 2.49; T 2.47; P 2.23; S 1.7; M 2.45; N 4.97; V 2.92; L 2.59; I 2.17; E 3.13; K 3.16
W4: Q 2.62; S 3.31; I 1.99; L 1.6; P 2.73; K 2.72; R 3.35; V 3; Y 3.95; N 2.4; T 2.88; M 2.59
F18: E 1.47; S 1.64; H 2.42; K 2.23; P 1.85; N 1.54; I 3.7; T 1.83; L 2.54; M 4.64; D 2.42; R 2.63; Q 2.5; Y 4.65; C 2.71; W 2.46; V 2.92; G 1.51; A 1.7
V12: W 2.41; Y 3.38; M 3.38; P 2.79; H 1.81; A 2.57; N 3.36; R 4.39; E 2.92; I 2.53; D 1.97; T 4.1; C 1.62; F 2.89; G 2.21; L 3.58; K 2.75; S 4.3
S14: I 2.62; Q 3.26; R 2.77; V 3.6; K 2.36; H 2.12; T 2.17; E 2.08; D 2.77; Y 2.89; M 2.13; L 2.31; C 2.79; P 2.1; A 3.2; F 2.64; N 2.82
L21: D 1.92; R 1.94; V 3.54; G 1.83; Q 2.44; A 2.13; H 2.39; Y 2.9; N 1.58; K 2.58; E 3.8; W 2.91; I 3.08; M 3.25; F 1.95; S 2.65; T 2.96; P 2.37; C 3.87
M11: F 2.54; L 3.95; S 2.27; K 2.38; Q 3.54; H 2.44; D 2.95; W 2.44; P 2.15; Y 2.99; C 2.06; G 3.08; A 2.1; T 3.06; I 1.89; R 2.69; N 1.86; E 1.74; V 2.69
N13: M 3.59; Y 2.33; H 3; S 2.96; K 3.69; C 3.44; A 3.6; L 2.44; R 2.39; V 2.72; I 2.37; G 3.19; T 1.95; E 2.47; P 2.87; D 3.31; W 3.07; F 2.69; Q 3.14
I5: T 3.2; S 3.64; M 2.4; N 3.07; Y 2.56; E 3.23; R 2.13; C 2.8; K 3.55; H 3.14; D 2.61; A 2.47; Q 3.02; W 4.27; L 2.8; F 2.91; V 2.27; P 3.31
R6: M 2.76; A 2.27; I 2.66; N 3.63; G 2.76; E 1.89; L 2.03; F 3.74; V 2.73; C 3.31; Y 3.78; D 3.82; P 2.75; K 3.09; W 3.13; H 3.75; S 2.97
E15: G 2.29; W 2.01; Q 4.22; I 2.72; F 2.69; L 2.44; M 2.26; H 2.77; C 2.74; R 1.25; S 2.47; N 2.88; T 1.65; K 2.89; P 1.87; V 3.11; Y 3.03; A 3.44
C22: A 1.91; H 2.62; G 2.32; D 1.94; K 2.13; E 2.33; L 3.17; I 2.66
K7: F 2.97; D 2.54; T 2.16; H 2.76; A 4.36; W 2.95; V 2.61; C 2.73; Y 2.9; Q 2.47; G 3.14; R 4.2; M 2.73; I 2.71; E 2.84; L 2.55; N 2.32; S 2.95; P 3.02
I17: L 3.15; R 2.7; H 2.5; V 2.24; W 2.16; F 2.21; C 3.18; A 2.04; D 1.93; Q 3.35; G 2.04; P 1.93; N 1.85; T 2.42; M 2.26; S 2.6; E 3.62; K 2.62; Y 2.83
S9: I 3.83; E 2.68; F 2.03; N 2.49; R 2.62; T 2.62; V 2.19; P 3.63; L 3.2; W 4.39; Y 3.67; D 3.01; C 2.28; Q 2.69; G 2.66; M 2.34; K 2.54; H 2.91; A 2.99
T10: D 1.98; K 3.25; L 2.55; Y 3.22; I 4.37; P 2.82; V 1.95; Q 3.06; H 3.31; F 3.41; N 2.17; M 2.48; R 2.52; E 2.91; G 2.9; W 4.55; S 3.33; C 2.73
L19: Y 3.02; V 3.1; F 2.07; K 1.54; N 1.83; S 1.63; I 2.63; M 2.08; P 1.95; C 2.32; H 1.7; W 2.33; E 1.79; Q 2.21; G 1.8; T 1.69; D 2.01; A 2.25; R 1.7
